In data set [1] the target is T1, GST-YY1 (UniProt P25490 P25490:1-414). In words: EMSA; 50 mM KCl, pH 8, poly(dI-dC), on ice. To be noted: tags: GST fusion, expressed in E. coli; label: 32P end. As for the experimental part:
(§1) The Kpnl-D4Z4 unit plasmid, used to generate EMSA probes for the experiments shown in FIGS. 2A-2C, was kindly provided by L. Felicetti. For the EMSA experiments shown in FIG. 4, oligonucleotide probes were prepared by end-labeling double-stranded oligonucleotides covering the region of the minimal binding site. The sequences of the oligonucleotides were as follows: WT, 5′-[…]-3′ (SEQ ID NO:1); MUT, 5′-CTCACCGCCgcc[…]-3′ (SEQ ID NO:2) (mutated nucleotides are shown in italics). DNA binding reactions were carried out in 20 μl of 10 mM HEPES (pH 8), 10% glycerol, 50 mM KCl, 0.1 mM EDTA, 0.25 mM DTT, 0.1 mg/ml poly (dl-dC), 0.1 mg/ml bovine serum albumin, 20,000 cpm of radiolabeled probe. The samples were incubated for 30 minutes on ice in the presence of the indicated nuclear extract or protein fraction. For competition assays, unlabeled probes were added to the reaction mixture at the same time as the labeled probe. For supershift assays, a binding reaction was assembled in the absence of radiolabeled probe. Antibodies were added to the binding reaction and the samples were incubated 15 minutes at room temperature. Radiolabled probe was added and the samples were incubated for additional 30 minutes on ice. Reaction mixtures were loaded in the cold room onto 6% native polyacrylamide gels containing 0.5×Tris-borate-EDTA (TBE) that had been preelectrophoresed for 30 minutes at 20 mA. […]

Data set [2] has as its target GST (UniProt P08515 P08515:2-218). In words: EMSA; GST alone control. To be noted: tags: GST alone, label: 32P end. As for the experimental part: as §1
A general note: In EMSA bound probe runs differently from free probe, usually more slowly.

Data set [3] deals with T1, GST-YY1. In words: EMSA; YY1 core mutated. To be noted: tags: GST fusion, expressed in E. coli; label: 32P end. As for the experimental part:
as §1

Consider 2 molecules from US20050054012, “Methods of detecting and treating facioscapulohumeral muscular dystrophy” (published 2005).

T1 sequence (P25490 whole entry, the tested form may be a part, one chain of several): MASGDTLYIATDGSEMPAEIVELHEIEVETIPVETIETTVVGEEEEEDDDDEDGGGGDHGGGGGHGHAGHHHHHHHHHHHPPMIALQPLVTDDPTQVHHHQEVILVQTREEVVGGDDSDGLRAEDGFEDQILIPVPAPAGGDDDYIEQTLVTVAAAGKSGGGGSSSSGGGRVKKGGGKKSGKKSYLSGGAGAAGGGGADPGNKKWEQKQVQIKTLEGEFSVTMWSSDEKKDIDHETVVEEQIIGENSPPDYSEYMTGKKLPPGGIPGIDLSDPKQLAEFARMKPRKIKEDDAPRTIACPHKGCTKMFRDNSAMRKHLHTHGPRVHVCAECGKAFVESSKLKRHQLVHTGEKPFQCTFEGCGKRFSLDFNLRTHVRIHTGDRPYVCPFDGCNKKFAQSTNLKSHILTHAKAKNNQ
GST, sequence (P08515 2-218, one chain of several): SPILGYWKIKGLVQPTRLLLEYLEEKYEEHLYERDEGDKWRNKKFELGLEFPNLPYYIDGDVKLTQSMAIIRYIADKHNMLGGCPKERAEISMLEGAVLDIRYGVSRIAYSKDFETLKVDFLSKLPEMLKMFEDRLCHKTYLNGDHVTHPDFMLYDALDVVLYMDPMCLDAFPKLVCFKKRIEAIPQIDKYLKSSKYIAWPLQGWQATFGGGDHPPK

B1: DBE WT probe (dsDNA)
DNA 1: CTCACCGCCATTCATGAAGGGGTGGAGCCTGCCTG
DNA 2: CAGGCAGGCTCCACCCCTTCATGAATGGCGGTGAG
As to B1, the results for the binding result in data set [1] and in data set [2] were “binds” and “no binding”, respectively.

B2: DBE MUT probe (dsDNA)
DNA 1: CTCACCGCCGCCCATGAAGGGGTGGAGCCTGCCTG
DNA 2: CAGGCAGGCTCCACCCCTTCATGGGCGGCGGTGAG
B2: the binding result in data set [3] was “no binding”.
